We go through 1 substance from paper PMC12622308.

The assay deals with KFERQ-PAmCherry-Flag. The assay can be described thus: co-IP (IP: HA, IB: Flag), western blot quantification. As to conditions: HEK293T SIRT2KD cells; parent: est. 1.0; read off a plot.

Take HSC70-HA WT (from UniProt P11142) K557R: the ratio to parent stood at 1.6.
